In experiment [1] the target is T1, CD3 on human T cells (H9 cells, ATCC HTB-176) (human).
T1 construct: whole, on cells; The target is printed as 'human T cells'
Kind of experiment: flow cytometry on H9 cells, 1 µg antibody per 2x10^5 cells in 100 µl, PE anti-human IgG detection. As to the method: The resultant was stored for 25 minutes in the dark at 4° C. Subsequently, treatment with 3 ml of FACS buffer was performed, and centrifugation was performed at 2,000 rpm for 3 minutes. Then, the supernatant was discarded.
Next, 100 μl FACS buffer containing 1 μg of phycoerythrin (PE)-conjugated human IgG antibody was used to treat the cells, and the resultant was stored for 25 minutes in the dark at 4° C. Subsequently, treatment with 3 ml of FACS buffer was performed, and centrifugation was performed at 2,000 rpm for 3 minutes. Then, the supernatant was discarded.
The cells were treated with a 4% formaldehyde solution, stored in the dark at 4° C. for 30 minutes, and then treated with 3 ml of FACS buffer. Centrifugation was performed at 2,000 rpm for 3 minutes, and then the supernatant was discarded. Treatment with 350 μl of FACS buffer was performed, and a flow cytometer was used to perform affinity analysis of the antibodies for the human T cells. The analysis results are illustrated in FIG. 1.
(Flow cytometry measures light scatter and fluorescence of single cells or particles in a stream.)

For experiment [2], the target named is T2, CD3 on monkey T cells (monkey splenocytes) (monkey).
T2 construct: whole, on cells; The target is printed as 'monkey T cells'
Kind of experiment: flow cytometry on monkey splenocytes, 1 µg antibody per 10^6 cells in 100 µl, PE anti-human IgG detection. The method, then:
Specifically, monkey splenocytes were prepared at 10⁶ cells in 100 μl FACS solution per antibody sample, and then 1 μg of antibody was used to treat the cells. The resultant was stored for 25 minutes in the dark at 4° C. Subsequently, treatment with 3 ml of FACS buffer was performed, and centrifugation was performed at 2,000 rpm for 3 minutes. Then, the supernatant was discarded.
Next, 100 μl FACS buffer containing 1 μg of PE-conjugated human IgG antibody was used to treat the cells, and the resultant was stored for 25 minutes in the dark at 4° C. Subsequently, treatment with 3 ml of FACS buffer was performed, and centrifugation was performed at 2,000 rpm for 3 minutes. Then, the supernatant was discarded.
The cells were treated with a 4% formaldehyde solution, stored in the dark at 4° C. for 30 minutes, and then treated with 3 ml of FACS buffer. Centrifugation was performed at 2,000 rpm for 3 minutes, and then the supernatant was discarded. Treatment with 350 μl of FACS buffer was performed, and a flow cytometer was used to perform affinity analysis of the antibodies for the […]. The analysis results are illustrated in FIG. 2.

T1 sequence (P07766 23-207, chain 1 of 3): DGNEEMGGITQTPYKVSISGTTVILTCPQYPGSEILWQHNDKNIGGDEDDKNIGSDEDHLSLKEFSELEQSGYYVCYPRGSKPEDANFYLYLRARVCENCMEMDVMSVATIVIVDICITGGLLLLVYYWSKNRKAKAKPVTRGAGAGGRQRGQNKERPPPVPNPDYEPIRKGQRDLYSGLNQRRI
T1 sequence (P04234 22-171, chain 2 of 3, further chain): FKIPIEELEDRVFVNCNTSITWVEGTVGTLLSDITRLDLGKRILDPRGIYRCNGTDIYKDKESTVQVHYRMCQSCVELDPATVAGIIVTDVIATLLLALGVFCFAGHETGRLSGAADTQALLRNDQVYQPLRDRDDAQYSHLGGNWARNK
T1 sequence (P09693 23-182, chain 3 of 3, further chain): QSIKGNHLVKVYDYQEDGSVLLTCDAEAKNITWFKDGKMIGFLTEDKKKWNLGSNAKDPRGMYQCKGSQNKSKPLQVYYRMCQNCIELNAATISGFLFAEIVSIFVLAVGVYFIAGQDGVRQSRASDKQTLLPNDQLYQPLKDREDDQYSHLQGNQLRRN

B1: H16 (antibody, human IgG1, lambda, L234A L235A, V domains shown)
VH: EVQLVESGGGLVQPGGSLKLSCAASGFTFNTYAMNWVRQASGKGLEWVARIRSKYNNYATYYADSVKDRFTISRDDSQSTLYLQMNSLKTEDTAVYYCVRHGNFGNSYVSWFAYWGQGTLVTVSS
VL: QAVVTQEPSLTVSPGGTVTLTCRSSTGAVTTSNYANWVQQKPGQAPRGLIGGTNKRAPWTPARFSGSLLGDKAALTLSGAQPEDEAEYYCALWYSNLWVFGGGTKLTVLG
notes: humanized SP34 IgG1, lambda
For B1, the “Mean : PE-A” value in experiment [1] was found to be 9350. Moreover, the “Mean : Comp-PE-A” value in experiment [2] was 13400.

B2: A08 (antibody, human IgG1, lambda, L234A L235A, V domains shown)
VH: EVQLVESGGGLVQPGGSLKLSCAASGFTFNTYAMNWVRQASGKGLEWVGRIRSKYNNYATYYADSVKDRFTISRDDSKNTAYLQMNSLKTEDTAVYYCVRHGNFGNSYVSWFAYWGQGTLVTVSS
VL: QAVVTQEPSLTVSPGGTVTLTCRSSTGAVTTSNYANWFQQKPGQAPRGLIGGTNKRAPWTPARFSGSLLGDKAALTLSGAQPEDEAEYYCALWYSNLWVFGGGTKLTVLG
notes: humanized SP34 IgG1, lambda; also called A8
As to B2, the “Mean : PE-A” value in experiment [1] is 3080. In addition, the “Mean : Comp-PE-A” value in experiment [2] was determined as 5530.

B3: D08 (antibody, human IgG1, lambda, L234A L235A, V domains shown)
VH: EVQLVESGGGLVQPGGSLKLSCAASGFTFNTYAMNWVRQASGKGLEWVGRIRSKYNNYATYYADSVKDRFTISRDDSQSTLYLQMNSLKTEDTAVYYCVRHGNFGNSYVSWFAYWGQGTLVTVSS
VL: QAVVTQEPSLTVSPGGTVTLTCRSSTGAVTTSNYANWFQQKPGQAPRGLIGGTNKRAPWTPARFSGSLLGDKAALTLSGAQPEDEAEYYCALWYSNLWVFGGGTKLTVLG
notes: humanized SP34 IgG1, lambda; also called D8
As for B3, the “Mean : PE-A” value in experiment [1] turned out to be 4220. The “Mean : Comp-PE-A” value in experiment [2] is 5120.

B4: E15 (antibody, human IgG1, lambda, L234A L235A, V domains shown)
VH: EVQLVESGGGLVQPGGSLKLSCAASGFTFNTYAMNWVRQASGKGLEWVARIRSKYNNYATYYADSVKDRFTISRDDSKNTAYLQMNSLKTEDTAVYYCVRHGNFGNSYVSWFAYWGQGTLVTVSS
VL: QAVVTQEPSLTVSPGGTVTLTCRSSTGAVTTSNYANWVQQKPGQAPRGLIGGTNKRAPWTPARFSGSLLGGKAALTLSGAQPEDEAEYYCALWYSNLWVFGGGTKLTVLG
notes: humanized SP34 IgG1, lambda
With B4, the “Mean : PE-A” value in experiment [1] amounted to 12800. Further, in experiment [2], the “Mean : Comp-PE-A” value is 13500.

B5: G15 (antibody, human IgG1, lambda, L234A L235A, V domains shown)
VH: EVQLVESGGGLVQPGGSLKLSCAASGFTFNTYAMNWVRQASGKGLEWVARIRSKYNNYATYYADSVKDRFTISRDDSQSTAYLQMNSLKTEDTAVYYCVRHGNFGNSYVSWFAYWGQGTLVTVSS
VL: QAVVTQEPSLTVSPGGTVTLTCRSSTGAVTTSNYANWVQQKPGQAPRGLIGGTNKRAPWTPARFSGSLLGGKAALTLSGAQPEDEAEYYCALWYSNLWVFGGGTKLTVLG
notes: humanized SP34 IgG1, lambda
For the molecule B5, the “Mean : PE-A” value in experiment [1] worked out at 11600. Also, the “Mean : Comp-PE-A” value in experiment [2] amounted to 17300.

B6: G16 (antibody, human IgG1, lambda, L234A L235A, V domains shown)
VH: EVQLVESGGGLVQPGGSLKLSCAASGFTFNTYAMNWVRQASGKGLEWVARIRSKYNNYATYYADSVKDRFTISRDDSQSTAYLQMNSLKTEDTAVYYCVRHGNFGNSYVSWFAYWGQGTLVTVSS
VL: QAVVTQEPSLTVSPGGTVTLTCRSSTGAVTTSNYANWVQQKPGQAPRGLIGGTNKRAPWTPARFSGSLLGDKAALTLSGAQPEDEAEYYCALWYSNLWVFGGGTKLTVLG
notes: humanized SP34 IgG1, lambda
With B6, the “Mean : PE-A” value in experiment [1] was 10300. The “Mean : Comp-PE-A” value in experiment [2] turned out to be 14000.

B7: C07 (antibody, human IgG1, lambda, L234A L235A, V domains shown)
VH: EVQLVESGGGLVQPGGSLKLSCAASGFTFNTYAMNWVRQASGKGLEWVGRIRSKYNNYATYYADSVKDRFTISRDDSQSTAYLQMNSLKTEDTAVYYCVRHGNFGNSYVSWFAYWGQGTLVTVSS
VL: QAVVTQEPSLTVSPGGTVTLTCRSSTGAVTTSNYANWFQQKPGQAPRGLIGGTNKRAPWTPARFSGSLLGGKAALTLSGAQPEDEAEYYCALWYSNLWVFGGGTKLTVLG
notes: humanized SP34 IgG1, lambda; also called C7
B7: in experiment [1], the “Mean : PE-A” value worked out at 4620. Further, the “Mean : Comp-PE-A” value in experiment [2] was 5380.

B8: C15 (antibody, human IgG1, lambda, L234A L235A, V domains shown)
VH: EVQLVESGGGLVQPGGSLKLSCAASGFTFNTYAMNWVRQASGKGLEWVGRIRSKYNNYATYYADSVKDRFTISRDDSQSTAYLQMNSLKTEDTAVYYCVRHGNFGNSYVSWFAYWGQGTLVTVSS
VL: QAVVTQEPSLTVSPGGTVTLTCRSSTGAVTTSNYANWVQQKPGQAPRGLIGGTNKRAPWTPARFSGSLLGGKAALTLSGAQPEDEAEYYCALWYSNLWVFGGGTKLTVLG
notes: humanized SP34 IgG1, lambda
For the molecule B8, in experiment [1], the “Mean : PE-A” value was 23100. In addition, the “Mean : Comp-PE-A” value in experiment [2] is 17800.

B9: B15 (antibody, human IgG1, lambda, L234A L235A, V domains shown)
VH: EVQLVESGGGLVQPGGSLKLSCAASGFTFNTYAMNWVRQASGKGLEWVGRIRSKYNNYATYYADSVKDRFTISRDDSKNTLYLQMNSLKTEDTAVYYCVRHGNFGNSYVSWFAYWGQGTLVTVSS
VL: QAVVTQEPSLTVSPGGTVTLTCRSSTGAVTTSNYANWVQQKPGQAPRGLIGGTNKRAPWTPARFSGSLLGGKAALTLSGAQPEDEAEYYCALWYSNLWVFGGGTKLTVLG
notes: humanized SP34 IgG1, lambda
Regarding B9, in experiment [1], the “Mean : PE-A” value amounted to 22900. The “Mean : Comp-PE-A” value in experiment [2] came out at 16300.

B10: D15 (antibody, human IgG1, lambda, L234A L235A, V domains shown)
VH: EVQLVESGGGLVQPGGSLKLSCAASGFTFNTYAMNWVRQASGKGLEWVGRIRSKYNNYATYYADSVKDRFTISRDDSQSTLYLQMNSLKTEDTAVYYCVRHGNFGNSYVSWFAYWGQGTLVTVSS
VL: QAVVTQEPSLTVSPGGTVTLTCRSSTGAVTTSNYANWVQQKPGQAPRGLIGGTNKRAPWTPARFSGSLLGGKAALTLSGAQPEDEAEYYCALWYSNLWVFGGGTKLTVLG
notes: humanized SP34 IgG1, lambda
In the case of B10, the “Mean : PE-A” value in experiment [1] is 22600. For the same molecule, in experiment [2], the “Mean : Comp-PE-A” value amounted to 18600.

B11: B08 (antibody, human IgG1, lambda, L234A L235A, V domains shown)
VH: EVQLVESGGGLVQPGGSLKLSCAASGFTFNTYAMNWVRQASGKGLEWVGRIRSKYNNYATYYADSVKDRFTISRDDSKNTLYLQMNSLKTEDTAVYYCVRHGNFGNSYVSWFAYWGQGTLVTVSS
VL: QAVVTQEPSLTVSPGGTVTLTCRSSTGAVTTSNYANWFQQKPGQAPRGLIGGTNKRAPWTPARFSGSLLGDKAALTLSGAQPEDEAEYYCALWYSNLWVFGGGTKLTVLG
notes: humanized SP34 IgG1, lambda; also called B8
Turning to B11, the “Mean : PE-A” value in experiment [1] was found to be 3780. For the same molecule, in experiment [2], the “Mean : Comp-PE-A” value came out at 4590.

B12: F15 (antibody, human IgG1, lambda, L234A L235A, V domains shown)
VH: EVQLVESGGGLVQPGGSLKLSCAASGFTFNTYAMNWVRQASGKGLEWVARIRSKYNNYATYYADSVKDRFTISRDDSKNTLYLQMNSLKTEDTAVYYCVRHGNFGNSYVSWFAYWGQGTLVTVSS
VL: QAVVTQEPSLTVSPGGTVTLTCRSSTGAVTTSNYANWVQQKPGQAPRGLIGGTNKRAPWTPARFSGSLLGGKAALTLSGAQPEDEAEYYCALWYSNLWVFGGGTKLTVLG
notes: humanized SP34 IgG1, lambda
As for B12, in experiment [1], the “Mean : PE-A” value was 11200. Also, in experiment [2], the “Mean : Comp-PE-A” value turned out to be 14700.

B13: D07 (antibody, human IgG1, lambda, L234A L235A, V domains shown)
VH: EVQLVESGGGLVQPGGSLKLSCAASGFTFNTYAMNWVRQASGKGLEWVGRIRSKYNNYATYYADSVKDRFTISRDDSQSTLYLQMNSLKTEDTAVYYCVRHGNFGNSYVSWFAYWGQGTLVTVSS
VL: QAVVTQEPSLTVSPGGTVTLTCRSSTGAVTTSNYANWFQQKPGQAPRGLIGGTNKRAPWTPARFSGSLLGGKAALTLSGAQPEDEAEYYCALWYSNLWVFGGGTKLTVLG
notes: humanized SP34 IgG1, lambda; also called D7
Turning to B13, in experiment [1], the “Mean : PE-A” value stood at 3770. Also, in experiment [2], the “Mean : Comp-PE-A” value stood at 6760.

B14: A15 (antibody, human IgG1, lambda, L234A L235A, V domains shown)
VH: EVQLVESGGGLVQPGGSLKLSCAASGFTFNTYAMNWVRQASGKGLEWVGRIRSKYNNYATYYADSVKDRFTISRDDSKNTAYLQMNSLKTEDTAVYYCVRHGNFGNSYVSWFAYWGQGTLVTVSS
VL: QAVVTQEPSLTVSPGGTVTLTCRSSTGAVTTSNYANWVQQKPGQAPRGLIGGTNKRAPWTPARFSGSLLGGKAALTLSGAQPEDEAEYYCALWYSNLWVFGGGTKLTVLG
notes: humanized SP34 IgG1, lambda
As for B14, the “Mean : PE-A” value in experiment [1] was 24000. For the same molecule, the “Mean : Comp-PE-A” value in experiment [2] came out at 15800.

B15: C08 (antibody, human IgG1, lambda, L234A L235A, V domains shown)
VH: EVQLVESGGGLVQPGGSLKLSCAASGFTFNTYAMNWVRQASGKGLEWVGRIRSKYNNYATYYADSVKDRFTISRDDSQSTAYLQMNSLKTEDTAVYYCVRHGNFGNSYVSWFAYWGQGTLVTVSS
VL: QAVVTQEPSLTVSPGGTVTLTCRSSTGAVTTSNYANWFQQKPGQAPRGLIGGTNKRAPWTPARFSGSLLGDKAALTLSGAQPEDEAEYYCALWYSNLWVFGGGTKLTVLG
notes: humanized SP34 IgG1, lambda; also called C8
For the molecule B15, the “Mean : PE-A” value in experiment [1] is 4680. The “Mean : Comp-PE-A” value in experiment [2] worked out at 5670.

B16: Mouse human chimeric SP34 IgG1 antibody (antibody, V domains shown)
VH: EVQLVESGGGLVQPKGSLKLSCAASGFTFNTYAMNWVRQAPGKGLEWVARIRSKYNNYATYYADSVKDRFTISRDDSQSILYLQMNNLKTEDTAMYYCVRHGNFGNSYVSWFAYWGQGTLVTVSS
VL: QAVVTQESALTTSPGETVTLTCRSSTGAVTTSNYANWVQEKPDHLFTGLIGGTNKRAPGVPARFSGSLIGDKAALTITGAQTEDEAIYFCALWYSNLWVFGGGTKLTVLG
For B16, the “Mean : Comp-PE-A” value in experiment [2] came to 19800.
